The values that follow come from the nanobody polyreactivity screen of Harvey et al. (2022).

The nature of this series: yeast display, Sf9 membrane polyspecificity reagent, FACS + sequencing; frameworks hold sequencing errors. An outline of the steps:
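A synthetic nanobody library was expressed on Saccharomyces cerevisiae BJ5465 by galactose induction for 36–48 hours. The library was stained for 1 hour at 4 °C with 10% biotinylated, detergent-solubilized Sf9 membrane reagent and enriched with streptavidin microbeads before FACS. Low and high (top ~1%) gates were set on anti-HA fluorescence for expression and streptavidin fluorescence for reagent binding, and each polyreactivity label reflects the gate of origin.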
Turning to “QVQLVESGVGLVQAGGSLSLSCAASGRIFPVYAMGWYRQAPGKERELVATISYSGSSTYYADSVKGRFTISRDNAKNNVYLLMNSLKPEDTAVYYCNADAFGPQCVQYYYWGQVTQVTVSS”, the “polyreactivity (PSR sort gate)” value is given as “low polyreactivity”.

For the sequence “QVQLVESGGRLVQAGGSLSLSCAASGSIFYRNAMGWYSQAPAKEWEFVAVITSSGTSTYYADSVKGRFTISRDNEKNTVSFQMKSLKPEDTAVYYCAADESSPSRGDYWGQGTQVSVSS”, the “polyreactivity (PSR sort gate)” value is listed as “low polyreactivity”.

“QVQLVESGGGLVQAGGSLRLSCAASGSTFEPNAMGWSRQEPGKERELVASITSSGGSTYYADSVKGRFTISRDNAKNTVYLQMKSLKPEDTAVYYCNARVPPQGWGPWKAFDYWGQGTQVTVSS”: the “polyreactivity (PSR sort gate)” value is reported as “low polyreactivity”.

For “QVQLVESGGGLVQAGGSLRLSCAASGRTFLYYAMGWYRQAPGKERELVAAISSGGSTNYADSVKGRFTISRDNAKNTVYLQMNSLIPEDTAVYDCNADYTSRETSDVIYEYDYWGQATQVTVSS”, the “polyreactivity (PSR sort gate)” value is on record as “low polyreactivity”.

Regarding “QVQLVESVGGLVQAGGSLPLSCAASGFTFSDYAMGWYRQAPGKESELVAGISSGGYTNYADSVKGRFTISRDNAKNTVYLQMNSLKPEDTAVYYCAAAYYSKFGYWGKGTQVTVSS”, the “polyreactivity (PSR sort gate)” value was “high polyreactivity”.

In the case of “QVQLVESGGGLVQAGGSLRLSCAASGSTFPVYAMGWYRQAPGKERELVAAISRSGASTYYAASVKGRFTISRDNAKNTVDLQMNSLKPDDTAVYYCARGYQGRLKYEYWGQGTQVTVSS”, the “polyreactivity (PSR sort gate)” value is “low polyreactivity”.

Take “QFQLVESGGGLVQAGGSLRLSCAASGSTFPRYAMGWYRPAPGKERELVAAISRSGTSTYYADSVKGRFTISRDNAKNTVYLQMNSLKPEDTAVYYCAAEYHPRVLYPNWYDYWGQGTQVTVSS”: the “polyreactivity (PSR sort gate)” value is listed as “low polyreactivity”.

With “QVQLVESGGGLVQAGGSLRLSCAASGRTFHPYAMGWYRQAPGKERELVAAITISTNYADSVKGRFTISRDNAKNTVSLQMNSVKPEDTAVYYCNADFVRPSWARGRNNGLYYWGQGTQVTVSS”, the “polyreactivity (PSR sort gate)” value is given as “low polyreactivity”.

Regarding “QVQLVESGGGLVQAGGSLRLSCAASGSIFPAYAMGWYRQAPGKEREFVAAISGTGGITYYADSVKGRFTISRDNAKNTVYLQMNSLKPEDTEVYYCAAPVYNRYYYWGQGTQVTVSS”, the “polyreactivity (PSR sort gate)” value is listed as “low polyreactivity”.

For the sequence “QVQLVESGGGLVQAGGSLRLSCAASGLTFRPYTMGWYRQAPAKERELVAAISARGGRTYYADSVKGRFTISRDNAKNTVYLQMNSLKPEDTAVYYCATLETTGVNYWGQGTQVTVSS”, the “polyreactivity (PSR sort gate)” value is listed as “high polyreactivity”.

On to “QVQLVESGGGLVQAGGSLRLSCAASGSIFITYAMGWYRQAPGKERELVAAIRDSGDRTYYADSVKGRFTISRDNEKNTVYLQMNSLKPEDTAVYYCNARWQEPLKYDYWGQGTQVTVSS”, for which the “polyreactivity (PSR sort gate)” value is given as “low polyreactivity”.

As for “QVQLVESGGGLVQAGGSLRLSCAASGIIFYAYAMGWYRQAPGKETELVAAITFSAVSTNYADSVKGRFTISRDYAKNTVYLQMNSLKPEDTAVYYCAAEAYKHGVWDYDYWGQGTQVTVSS”, the “polyreactivity (PSR sort gate)” value is recorded as “low polyreactivity”.

Turning to “QVQLVESGGGLVQAGGSLRLSCAASGSIFVLYAMGWYRKAPGKERELVAAISRGVGGTNYADSVKGRFTISRDNAKITVYLQMNSLKPEDTAVYYCAAQTLRWSHYYYWGQGTQVTVSS”, the “polyreactivity (PSR sort gate)” value is “high polyreactivity”.

“QVQLVESGGGLVKAGGSLRLSCAASGSIFGGYAMGCYRQAPGKERELVAAISYRGASTYYADSVKWRFTISRDNAKNTVYLQMNSLKPEDTAVYYCAVAARTRARVLYGYDYWGQGTQVTVSS”: the “polyreactivity (PSR sort gate)” value was “low polyreactivity”.

Take “QVHLVESGGGLVQAGGSLRLSCAASGSTFFKNAMGWYRQAAGKERELVAAITWSGDRTYADSVKGRFTISRDNAKYTVYLQMNSLKPEDTAVYYCNVDITGYEDDYWGQGTQVTVSS”: the “polyreactivity (PSR sort gate)” value is given as “low polyreactivity”.

For the sequence “QVQLVESGGGLVQAGGSLRLSCAASGFIFRRYAMGWYRQAPGKERELVAAISGSGGRTYYADSVKGRFTISRDNAKNTVYLQMNSLKPEDTAVYYCAADHGSLLYDYWGQGTQVTVSS”, the “polyreactivity (PSR sort gate)” value is recorded as “high polyreactivity”.

“QVQLVESGGGLVQAGGSLRLSCAASGRTFWYNARGWYRQAPGKERELVAAITRGGGRTYYADSVKGRFTISRDNAKNTVYLQMNSPKPEDTAVYYCADDSHYDMNYWGQGTQVTVSS”: the “polyreactivity (PSR sort gate)” value is “low polyreactivity”.

Consider “QVQLVESGGGLVQAGGSLRLSCAASGGIFRYYAMGLYRQAPGKERELVASIRRSGGRTYYADSVKGRFTISRDNAKYTVYFQMNSLKPEDTAVYYCNADRLIVTMNSWGQGTQVTVSS”, for which the “polyreactivity (PSR sort gate)” value is reported as “low polyreactivity”.

“QVQLVESGGGLVQAGGSLRLSCAASGSIFLAYDMGWYRQAPGKERELVAGITSGGTTYYADSVKGRFTISRDNAKNTVYLQMNSLKPEDTAVYYCAVEPVFIVSEVLFDYWGQGTQVTVSS”: the “polyreactivity (PSR sort gate)” value is given as “low polyreactivity”.

“QVQLVESGRGLDQAGGSHRISCAGSARIFTIYAMGCYRQAPGKERELVAAISKSGGRTYYADSVKGRFTISRDNAKNTVYVQMNSLKPEDTAVYYCAARWRSWRYKYDYWGQGTQVTVSS”: the “polyreactivity (PSR sort gate)” value is “high polyreactivity”.

For the sequence “QVQLVESGGGLVQAGGSLRLSCAASGLTFSRYAMGWYRQAPGKERELVAAISSRSGSTFYADSVKGRFTISRDNAKNTVYLQMNSLKPEDTAVYYCAARRDWLGGYWGQGTQVTVSS”, the “polyreactivity (PSR sort gate)” value is given as “high polyreactivity”.

As to “QVQLVESGGGLVQAGGSLRLTCAASGRIFSGYAMGWYRQEPGKEREFVASISTSGARTYYADSVKGRFTISRDNAKNTVYLQMNRLKPEDTAVYYCAKVIRWISYRGWYDYWGQGTQVTVSS”, the “polyreactivity (PSR sort gate)” value is listed as “high polyreactivity”.

For the sequence “QVQLVESGGGLFQAGGSLRLSCAASGSIFRYYVMGWYRQAPGKEMELVAAISTGDRTNYADSVKGRFTISRDNAKNTVYLQMNSLKPEDTAVYYCNADYVVGWARLEFNYWGQGTQVTVSS”, the “polyreactivity (PSR sort gate)” value is recorded as “low polyreactivity”.

Take “QVQLVESGGGLVQAGGSLRLSCAASGRTFVGNAIGWYRQATGKERELVAAINGSGGSTYYEDSVKGRFTISRDNAKNTVYLQMNSLKPEDPAVYYCNARPGVYVVIYDYWGQGTQVTVSS”: the “polyreactivity (PSR sort gate)” value is “low polyreactivity”.

In the case of “QVQLVESGGGLVQAGGSLRLSCAASGRITYYAMGWYRQAPGKERELVAVISWSGSSTNYADSVKGRFTISRDNAKNTVYLQMNSLKPEDTAVYFCAAENAVTGTDGEYYYWGQGTQVTVSS”, the “polyreactivity (PSR sort gate)” value is reported as “high polyreactivity”.

As for “QVQLVESGGGLVQAGGSLRLSCAASGFTFYVYAMGWYRQAPGKEREFVAAISSSGGSTYYADSVKGRFTISRDNAKNTVYLQMNSLKPEDTAVYYSAALAYSTTRGRLDYWGQGTQVTVSS”, the “polyreactivity (PSR sort gate)” value is listed as “high polyreactivity”.

For the sequence “QVQLVESGGGLVQAGGSLRLSCAASGSTIRYYAMGWYRQAPGKERELLAAITKSGGSTYYADSVKGRFTISRDNAKNTVYLQMNSLKPEDTAVYFCAAVRRWYYPALSEHDYCGQGTQVTVSS”, the “polyreactivity (PSR sort gate)” value is listed as “low polyreactivity”.

“QVQLVESGGGLVQAGGSLRLSCAASGRIFGPNAMGWYRQAPGKERELVASISYSGGSTYYADSVKGRFTISRDNAKNTVYLQMNSLKPEDTAVYYCAKGGYWRGYNYWGQGTQVTVSS”: the “polyreactivity (PSR sort gate)” value is listed as “low polyreactivity”.

“QVQLVESGGGLVQAGGSLRLSCAASGYIFTYNAMGWYRQAPGKERELVAAISYSGGSTYYADSVKGRFTISRDNAKNTVYLQINSLNPEDTAVYYCNAVWRHTYGNYFWGQGTQVTVSS”: the “polyreactivity (PSR sort gate)” value is on record as “high polyreactivity”.

“QVQLVESGGGLVQAGGSLRLSCASSGRTFNFYAMGWYRQAPGKERELVAAISHGDSTYYADSVKGRFTISRDNAKNTVYLQMNSLKPEDTAVYYCAASQKYYLLKYEYWGQGTQVTVSS”: the “polyreactivity (PSR sort gate)” value was “low polyreactivity”.
